What all share (test): cell-based or functional assay
The target in test [1] is T1, human CDH3 (Cadherin-3, P-Cadherin) (human, UniProt P22223 108-829).
The target in test [2] is T2, human MSLN (mesothelin) (human, UniProt Q13421 37-598).
In test [3] the target is T1, human CDH3 (Cadherin-3, P-Cadherin). The source holds these as a separate data set.
Test [4] deals with T2, human MSLN (mesothelin). This is another data set of the same source.
The target in test [5] is human CDH3 (human, UniProt P22223 108-829).
The target in test [6] is human MSLN (human, UniProt Q13421 37-598).

Results on four molecules are retold here after patent US20240209078A1 (Amgen, published 2024).

B1: MS 15-B12 CC × I2L × (G4Q)3 × scFc × (G4Q)3 × CH3 15-E11 CC × I2L (bispecific antibody)
chain: QVQLQESGPGLVKPSETLSLTCTVSGGSISSSSYFWGWIRQPPGKCLEWIGNIYYSGSSNYNPSLKSRVTISVDTSKNQFSLKLSSVTAADTAVYYCARLPRGDRDAFDIWGQGTMVTVSSGGGGQGGGGQGGGGQDIVMTQSPSSLSASVGDRVTITCRASQGISNYLAWYQQKPGKVPKLLIYAASTLQSGVPSRFSGSGSGTDFTLTISSLQPEDFATYYCQQSYSTPFTFGCGTKVEIKSGGGGQEVQLVESGGGLVQPGGSLKLSCAASGFTFNKYAMNWVRQAPGKGMEWVARIRSKYNNYATYYADAVKDRFTISRDDSKNTLYLQMNNLKTEDTAVYYCVRAGNFGSSYISYFAYWGQGTLVTVSSGGGGQGGGGQGGGGQQTVVTQEPSLTVSPGGTVTITCGSSTGAVTSGNYPNWIQKKPGQAPRGLIGGTKFLAPGTPARFSGSLEGGKAALTLSGVQPEDEAEYYCVLYYSNRWVFGSGTKLTVLGGGGQGGGGQGGGGQCPPCPAPELLGGPSVFLFPPKPKDTLMISRTPEVTCVVVDVSHEEPEVKFNWYVDGVEVHNAKTKPCEEQYGSTYRCVSVLTVLHQDWLNGKEYKCKVSNKALPAPIEKTISKAKGQPREPQVYTLPPSREEMTKNQVSLTCLVKGFYPSDIAVEWESNGQPENNYKTTPPVLDSDGSFFLYSKLTVDKSRWQQGNVFSCSVMHEALHNHYTQKSLSLSPGKGGGGQGGGGQGGGGQGGGGQGGGGQGGGGQCPPCPAPELLGGPSVFLFPPKPKDTLMISRTPEVTCVVVDVSHEEPEVKFNWYVDGVEVHNAKTKPCEEQYGSTYRCVSVLTVLHQDWLNGKEYKCKVSNKALPAPIEKTISKAKGQPREPQVYTLPPSREEMTKNQVSLTCLVKGFYPSDIAVEWESNGQPENNYKTTPPVLDSDGSFFLYSKLTVDKSRWQQGNVFSCSVMHEALHNHYTQKSLSLSPGKGGGGQGGGGQGGGGQQVQLVQSGAEVKKPGASVKVSCKASGYTFTNYWMNWVRQAPGQCLEWMGNIAYGVKGTNYNQKFQGRVTMTVDTSSSTAYMELSRLRSDDTAVYYCATRYFYVMDYWGQGTLVTVSSGGGGQGGGGQGGGGQDIQMTQSPSSLSASVGDRVTITCRASQDISNYLNWYQQKPGKVPKLLIYYTSRLHSGVPSRFSGSGSGTDFTLTISSLQPEDVATYYCVQYAQFPLTFGCGTKVEIKSGGGGQEVQLVESGGGLVQPGGSLKLSCAASGFTFNKYAMNWVRQAPGKGMEWVARIRSKYNNYATYYADAVKDRFTISRDDSKNTLYLQMNNLKTEDTAVYYCVRAGNFGSSYISYFAYWGQGTLVTVSSGGGGQGGGGQGGGGQQTVVTQEPSLTVSPGGTVTITCGSSTGAVTSGNYPNWIQKKPGQAPRGLIGGTKFLAPGTPARFSGSLEGGKAALTLSGVQPEDEAEYYCVLYYSNRWVFGSGTKLTVL
As for B1, the “cytotoxicity EC50, HCT 116 KO MSLN cells” value in test [1] came to 0.0035 nM. Further, in test [2], the “cytotoxicity EC50, HCT 116 KO CDH3 cells” value worked out at 0.0292 nM. Further, the “cytotoxicity EC50, GSU KO MSLN cells” value in test [3] is 1.73 nM. Besides, in test [4], the “cytotoxicity EC50, GSU KO CDH3 cells” value came to 2.9 nM.

B2: CH3 15-E11 CC × I2L × (G4Q)3 × scFc × (G4Q)3 × MS 15-B12 CC × I2L (bispecific antibody)
chain: QVQLVQSGAEVKKPGASVKVSCKASGYTFTNYWMNWVRQAPGQCLEWMGNIAYGVKGTNYNQKFQGRVTMTVDTSSSTAYMELSRLRSDDTAVYYCATRYFYVMDYWGQGTLVTVSSGGGGQGGGGQGGGGQDIQMTQSPSSLSASVGDRVTITCRASQDISNYLNWYQQKPGKVPKLLIYYTSRLHSGVPSRFSGSGSGTDFTLTISSLQPEDVATYYCVQYAQFPLTFGCGTKVEIKSGGGGQEVQLVESGGGLVQPGGSLKLSCAASGFTFNKYAMNWVRQAPGKGMEWVARIRSKYNNYATYYADAVKDRFTISRDDSKNTLYLQMNNLKTEDTAVYYCVRAGNFGSSYISYFAYWGQGTLVTVSSGGGGQGGGGQGGGGQQTVVTQEPSLTVSPGGTVTITCGSSTGAVTSGNYPNWIQKKPGQAPRGLIGGTKFLAPGTPARFSGSLEGGKAALTLSGVQPEDEAEYYCVLYYSNRWVFGSGTKLTVLGGGGQGGGGQGGGGQCPPCPAPELLGGPSVFLFPPKPKDTLMISRTPEVTCVVVDVSHEEPEVKFNWYVDGVEVHNAKTKPCEEQYGSTYRCVSVLTVLHQDWLNGKEYKCKVSNKALPAPIEKTISKAKGQPREPQVYTLPPSREEMTKNQVSLTCLVKGFYPSDIAVEWESNGQPENNYKTTPPVLDSDGSFFLYSKLTVDKSRWQQGNVFSCSVMHEALHNHYTQKSLSLSPGKGGGGQGGGGQGGGGQGGGGQGGGGQGGGGQCPPCPAPELLGGPSVFLFPPKPKDTLMISRTPEVTCVVVDVSHEEPEVKFNWYVDGVEVHNAKTKPCEEQYGSTYRCVSVLTVLHQDWLNGKEYKCKVSNKALPAPIEKTISKAKGQPREPQVYTLPPSREEMTKNQVSLTCLVKGFYPSDIAVEWESNGQPENNYKTTPPVLDSDGSFFLYSKLTVDKSRWQQGNVFSCSVMHEALHNHYTQKSLSLSPGKGGGGQGGGGQGGGGQQVQLQESGPGLVKPSETLSLTCTVSGGSISSSSYFWGWIRQPPGKCLEWIGNIYYSGSSNYNPSLKSRVTISVDTSKNQFSLKLSSVTAADTAVYYCARLPRGDRDAFDIWGQGTMVTVSSGGGGQGGGGQGGGGQDIVMTQSPSSLSASVGDRVTITCRASQGISNYLAWYQQKPGKVPKLLIYAASTLQSGVPSRFSGSGSGTDFTLTISSLQPEDFATYYCQQSYSTPFTFGCGTKVEIKSGGGGQEVQLVESGGGLVQPGGSLKLSCAASGFTFNKYAMNWVRQAPGKGMEWVARIRSKYNNYATYYADAVKDRFTISRDDSKNTLYLQMNNLKTEDTAVYYCVRAGNFGSSYISYFAYWGQGTLVTVSSGGGGQGGGGQGGGGQQTVVTQEPSLTVSPGGTVTITCGSSTGAVTSGNYPNWIQKKPGQAPRGLIGGTKFLAPGTPARFSGSLEGGKAALTLSGVQPEDEAEYYCVLYYSNRWVFGSGTKLTVL
B2: in test [1], the “cytotoxicity EC50, HCT 116 KO MSLN cells” value was 0.0085 nM. Besides, the “cytotoxicity EC50, HCT 116 KO CDH3 cells” value in test [2] came to 0.0226 nM. For the same molecule, the “cytotoxicity EC50, GSU KO MSLN cells” value in test [3] amounted to 3.33 nM. For the same molecule, the “cytotoxicity EC50, GSU KO CDH3 cells” value in test [4] was 0.171 nM.

B3: MS 15-B12 CC × I2L × G4 × scFc × G4 × CH3 15-E11 CC × I2L_GQ (bispecific antibody)
chain: QVQLQESGPGLVKPSETLSLTCTVSGGSISSSSYFWGWIRQPPGKCLEWIGNIYYSGSSNYNPSLKSRVTISVDTSKNQFSLKLSSVTAADTAVYYCARLPRGDRDAFDIWGQGTMVTVSSGGGGQGGGGQGGGGQDIVMTQSPSSLSASVGDRVTITCRASQGISNYLAWYQQKPGKVPKLLIYAASTLQSGVPSRFSGSGSGTDFTLTISSLQPEDFATYYCQQSYSTPFTFGCGTKVEIKSGGGGQEVQLVESGGGLVQPGGSLKLSCAASGFTFNKYAMNWVRQAPGKGMEWVARIRSKYNNYATYYADAVKDRFTISRDDSKNTLYLQMNNLKTEDTAVYYCVRAGNFGSSYISYFAYWGQGTLVTVSSGGGGQGGGGQGGGGQQTVVTQEPSLTVSPGGTVTITCGSSTGAVTSGNYPNWIQKKPGQAPRGLIGGTKFLAPGTPARFSGSLEGGKAALTLSGVQPEDEAEYYCVLYYSNRWVFGSGTKLTVLGGGGCPPCPAPELLGGPSVFLFPPKPKDTLMISRTPEVTCVVVDVSHEEPEVKFNWYVDGVEVHNAKTKPCEEQYGSTYRCVSVLTVLHQDWLNGKEYKCKVSNKALPAPIEKTISKAKGQPREPQVYTLPPSREEMTKNQVSLTCLVKGFYPSDIAVEWESNGQPENNYKTTPPVLDSDGSFFLYSKLTVDKSRWQQGNVFSCSVMHEALHNHYTQKSLSLSPGKGGGGQGGGGQGGGGQGGGGQGGGGQGGGGQCPPCPAPELLGGPSVFLFPPKPKDTLMISRTPEVTCVVVDVSHEEPEVKFNWYVDGVEVHNAKTKPCEEQYGSTYRCVSVLTVLHQDWLNGKEYKCKVSNKALPAPIEKTISKAKGQPREPQVYTLPPSREEMTKNQVSLTCLVKGFYPSDIAVEWESNGQPENNYKTTPPVLDSDGSFFLYSKLTVDKSRWQQGNVFSCSVMHEALHNHYTQKSLSLSPGKGGGGQVQLVQSGAEVKKPGASVKVSCKASGYTFTNYWMNWVRQAPGQCLEWMGNIAYGVKGTNYNQKFQGRVTMTVDTSSSTAYMELSRLRSDDTAVYYCATRYFYVMDYWGQGTLVTVSSGGGGQGGGGQGGGGQDIQMTQSPSSLSASVGDRVTITCRASQDISNYLNWYQQKPGKVPKLLIYYTSRLHSGVPSRFSGSGSGTDFTLTISSLQPEDVATYYCVQYAQFPLTFGCGTKVEIKSGGGGQEVQLVESGGGLVQPGGSLKLSCAASGFTFNKYAMNWVRQAPGKGMEWVARIRSKYNNYATYYADAVKDRFTISRDDSKNTLYLQMNNLKTEDTAVYYCVRAGNFGSSYISYFAYWGQGTLVTVSSGGGGQGGGGQGGGGQQTVVTQEPSLTVSPGGTVTITCGSSTGAVTSGNYPNWIQKKPGQAPRGLIGGTKFLAPGTPARFSGSLEGGKAALTLSGVQPEDEAEYYCVLYYSNRWVFGSGTKLTVL
In the case of B3, in test [1], the “cytotoxicity EC50, HCT 116 KO MSLN cells” value stood at 0.001 nM. Further, the “cytotoxicity EC50, HCT 116 KO CDH3 cells” value in test [2] turned out to be 0.0445 nM. Besides, the “cytotoxicity EC50, GSU KO MSLN cells” value in test [3] is 0.502 nM. The “cytotoxicity EC50, GSU KO CDH3 cells” value in test [4] is 0.115 nM.

B4: MS 15-B12 CC × 6H10.09 × (G4) × heFc (A) * heFc (B) × (G4) × CH3 15-E11 CC × 6H10.09 (Seq ID 326 + 327) (bispecific antibody)
chain 1: not shown
chain 2: DKTHTCPPCPAPELLGGPSVFLFPPKPKDTLMISRTPEVTCVVVDVSHEDPEVKFNWYVDGVEVHNAKTKPCEEQYGSTYRCVSVLTVLHQDWLNGKEYKCKVSNKALPAPIEKTISKAKGQPREPQVYTLPPSRKEMTKNQVSLTCLVKGFYPSDIAVEWESNGQPENNYKTTPPVLKSDGSFFLYSKLTVDKSRWQQGNVFSCSVMHEALHNHYTQKSLSLSPGKGGGGQVQLVQSGAEVKKPGASVKVSCKASGYTFTNYWMNWVRQAPGQCLEWMGNIAYGVKGTNYNQKFQGRVTMTVDTSSSTAYMELSRLRSDDTAVYYCATRYFYVMDYWGQGTLVTVSSGGGGSGGGGSGGGGSDIQMTQSPSSLSASVGDRVTITCRASQDISNYLNWYQQKPGKVPKLLIYYTSRLHSGVPSRFSGSGSGTDFTLTISSLQPEDVATYYCVQYAQFPLTFGCGTKVEIKSGGGGSEVQLVESGGGLVQPGGSLKLSCAASGFTFNKYAMNWVRQAPGKGMEWVARIRSKYNNYATYYADAVKDRFTISRDDSKNTLYLQMNNLKTEDTAVYYCVRAGNFGSSYISYFAYWGQGTLVTVSSGGGGSGGGGSGGGGSQTVVTQEPSLTVSPGGTVTITCGSSTGAVTSGNYPNWIQKKPGQAPRGLIGGTKFLAPGTPARFSGSLEGGKAALTLSGVQPEDEAEYYCVLYYSNRWVFGSGTKLTVL
Consider B4, for which, in test [5], the “EC50 GSU KO MSLN (cytotoxicity; cells CDH3+, MSLN-)” value came out at 0.533 nM; the “EC50 GSU wt (cytotoxicity; cells CDH3+, MSLN+)” value stood at 0.0032 nM; the “Fold selectivity gap, GSU KO MSLN against GSU wt” value amounted to 165 fold. In test [6], the “EC50 GSU KO CDH3 (cytotoxicity; cells CDH3-, MSLN+)” value worked out at 0.391 nM; the “EC50 GSU wt (cytotoxicity; cells CDH3+, MSLN+)” value turned out to be 0.0032 nM; the “Fold selectivity gap, GSU KO CDH3 against GSU wt” value is 121 fold.
